Assay results from patent US10982244B2, “Modified homoserine dehydrogenase and method for producing homoserine or L-amino acid derived from homoserine using the same” (CJ CHEILJEDANG CORPORATION, priority 2018, dated 2021).

Biological target: T1, homoserine dehydrogenase (Hom) (Corynebacterium glutamicum, UniProt P08499, R407H)
T1 construct: each supernatant was recovered through two centrifugations (13,000 rpm, 4° C., 30 minutes) and used as a crude extract for measuring the activity of Hom; endogenous in cells; host or cells: Crude cell extracts of Corynebacterium glutamicum ATCC13032 (wild type) and of CA09-0900 (ATCC13032 with chromosomal hom R407H)
Experiment: Measurement of Hom activity (U) and desensitization by L-threonine in crude extracts
Assay type: biochemical
Conditions: 10 mM L-threonine, compared with wild-type Hom
Experimental: The activity of the enzyme Hom was measured in the prepared strain. The wild-type strain ATCC13032 (the control group) and the CA09-0900 strain prepared in Example 4 were each inoculated into 25 mL of the seed medium and cultured until the strains reached the late log phase. The cells of each strain were recovered by centrifugation, washed twice with a 0.1 M potassium phosphate buffer (pH 7.6), and finally suspended in 2 mL of the same buffer containing glycerol at a concentration of 30%. Each cell suspension was physically disrupted by a conventional glass bead vortexing method for 10 minutes, and each supernatant was recovered through two centrifugations (13,000 rpm, 4° C., 30 minutes) and used as a crude extract for measuring the activity of Hom. For the measurement of the activity of Hom, a […] (0.1 mL) was added to a reaction solution for measuring the enzyme activity (a potassium phosphate (pH 7.0) buffer, 25 mM NADPH, 5 mM aspartate semi-aldehyde) and reacted at 30° C. The Hom enzyme activity U was defined as the number of NADPH consumed per minute according to the presence of L-threonine (0 mM, 10 mM), and the measurement results of the enzyme activity are shown in Table 2 below.

B1: Hom including the R407H modification: modified homoserine dehydrogenase, arginine at position 407 substituted with histidine (protein)
chain: MTSASAPSFNPGKGPGSAVGIALLGFGTVGTEVMRLMTEYGDELAHRIGGPLEVRGIAVSDISKPREGVAPELLTEDAFALIEREDVDIVVEVIGGIEYPREVVLAALKAGKSVVTANKALVAAHSAELADAAEAANVDLYFEAAVAGAIPVVGPLRRSLAGDQIQSVMGIVNGTTNFILDAMDSTGADYADSLAEATRLGYAEADPTADVEGHDAASKAAILASIAFHTRVTADDVYCEGISNISAADIEAAQQAGHTIKLLAICEKFTNKEGKSAISARVHPTLLPVSHPLASVNKSFNAIFVEAEAAGRLMFYGNGAGGAPTASAVLGDVVGAARNKVHGGRAPGESTYANLPIADFGETTTRYHLDMDVEDRVGVLAELASLFSEQGISLRTIRQEERDDDAHLIVVTHSALESDLSRTVELLKAKPVVKAINSVIRLERD
modifications: homoserine dehydrogenase R407H
notes: modified homoserine dehydrogenase, arginine at position 407 substituted with histidine
desensitization to L-threonine: the inhibition of the activity was reduced
